Experimental data reported in patent US20260250366A1 (RIN INSTITUTE, published 2026).

Experiments:
AMU1114 = biological target: T1, AMU1114 (Homo sapiens (Human), UniProt P0DOX7 1-214); experiment: assay not named in the sentence (ELISA of FIG. 5 presumably)
T1 construct: Complex of a fusion heavy chain (Fab region linked to a prourokinase mutant) and an antibody light chain; F396 of the heavy chain corresponds to F157 of urokinase
Procedure: (§1) The concentration of each of the human and mouse urokinase receptors was adjusted with PBS to 1 μg/mL. The resultant solution was dispensed in the wells of a 96-well plate in a volume of 50 μL/well, allowed to stand still at room temperature for 90 minutes to immobilize the receptor. To the plate having the receptor immobilized thereon, TBS-T containing 1% BSA was dispensed in a volume of 300 μL/well. The plate was allowed to stand still at room temperature for 60 minutes to block the plate. To the plate blocked, the sample (mutant) adjusted in concentration to 1000 ng/mL, 111.1 ng/mL or 12.3 ng/mL was added in a volume of 50 μL/well and allowed to react at room temperature for 60 minutes. After washing with TBS-T, HRP-conjugated anti-human Kappa chain antibody (Bethyl) diluted with 1% BSA-containing TBS-T to 1/50,000 fold was dispensed in a volume of 50 μL/well and allowed to react at room temperature for 60 minutes. After washing, a TMB (3,3′,5,5′-tetramethylbenzidine) coloring reagent was allowed to react for 15 minutes. The reaction was terminated with 2N H₂SO₄ (30 μL/well). Absorbance at 450 nm was measured.

[1] = biological target: AMU1114 (Δ22-28, F157E) mutant (Homo sapiens (Human), UniProt P0DOX7 1-214); experiment: ELISA, receptor immobilized, detection with HRP anti-human Kappa chain antibody; compared with PBS
Procedure: as §1

Sequence of AMU1114 (Δ22-28, F157E) mutant (P0DOX7 other isoform, or with tags, fused parts or gaps F157E F157E limits assumed, chain 2 of 2, other chains not shown): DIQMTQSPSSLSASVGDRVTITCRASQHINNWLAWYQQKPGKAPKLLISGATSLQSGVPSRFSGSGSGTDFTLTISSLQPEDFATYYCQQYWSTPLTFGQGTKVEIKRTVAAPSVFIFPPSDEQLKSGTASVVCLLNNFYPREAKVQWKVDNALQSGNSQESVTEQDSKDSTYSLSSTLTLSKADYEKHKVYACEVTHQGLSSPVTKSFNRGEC
T1 sequence (P0DOX7 other isoform, or with tags, fused parts or gaps limits assumed, chain 2 of 2, other chains not shown): as the sequence (P0DOX7 other isoform, or with tags, fused parts or gaps F157E F157E limits assumed, chain 2 of 2, other chains not shown) above

B1: mouse urokinase receptor (receptor)
chain: LQCMQCESNQSCLVEECALGQDLCRTTVLREWQDDRELEVVTRGCAHSEKTNRTMSYRMGSMIISLTETVCATNLCNRPRPGARGRAFPQGRYLECASCTSLDQSCERGREQSLQCRYPTEHCIEVVTLQSTERSLKDEDYTRGCGSLPGCPGTAGFHSNQTFHFLKCCNYTHCNGGPVLDLQSFPPNGFQCYSCEGNNTLGCSSEEASLINCRGPMNQCLVATGLDVLGNRSYTVRGCATASWCQGSHVADSFPTHLNVSVSCCHGSGCNSPTGHHHHHH
notes: Immobilized on the plate at 1 µg/mL
B1: no binding (AMU1114); no binding [1].
